Tests used:
[1] = biological target: AP2M1 (mu subunit of the AP2 complex) (UniProt Q96CW1); assay: competitive binding with synthetic peptides, in vitro; conditions: reference: unphosphorylated peptide; sites Y8
[2] = biological target: AP1M1 (mu subunit of the AP1 complex) (UniProt Q9BXS5); assay: as above; conditions: reference: unphosphorylated peptide; sites Y8

binding against the reference [1]: stronger
binding against the reference [2]: stronger
Substance: mATG9 1-18 (from UniProt Q7Z3C6) pY8 peptide
